Assay results from a protein production outcome set (Wang et al. 2014).

Assay: label from the status in PepcDB records
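Also: failed if final PepcDB status was selected cloned or expressed and not failed if soluble or beyond.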

| Sequence | protein production |
| --- | --- |
| MSSEMEPLLLAWSYFRRRKFQLCADLCTQMLEKSPYDQAAWILKARALTEMVYIDEIDVDQEGIAEMMLDENAIAQVPRPGTSLKLPGTNQTGGPSQAVRPITQAGRPITGFLRPSTQSGRPGTMEQAIRTPRTAYTARPITSSSGRFVRLGTASMLTSPDGPFINLSRLNLTKYSQKPKLAKALFEYIFHHENDVKTIHLEDVVLHLGIYPFLLRNKNHIEKNALDLAALSTEHSQYKDWWWKVQIGKCYYRLGMYREAEKQFKSALKQQEMVDTFLYLAKVYVSLDQPVTALNLFKQGLDKFPGEVTLLCGIARIYEEMNNMSSAAEYYKEVLKQDNTHVEAIACIGSNHFYSDQPEIALRFYRRLLQMGIYNGQLFNNLGLCCFYAQQYDMTLTSFERALSLAENEEEAADVWYNLGHVAVGIGDTNLAHQCFRLALVNNNNHAEAYNNLAVLEMRKGHVEQARALLQTASSLAPHMYEPHFNFATISDKIGDLQRSYVAAQKSEAAFPDHVDTQHLIKQLRQHFAML | failed |
| MAKDKRISLLKVTSMVIIINLLSKITGFIRDFITASKFGTSVSADAFSMSSVVPNIIFAILGAAIVNTFVPIFNDVIVNKGEKRAFKFSNNVITVLTLLSIILTLLGEIFCPQFVKLIAPDFHGYKYLLTIKLTRIFLLIIIVNTWVFLSTAILQAKEHFLIPSLIGIPYNLLVIVYLLFFSSKYGVLGLTEVIVFAMFVQFLIHVPSLARMKYRYKPEFNISDGYLKSMVVLLIPILLGTSVQQITSLFNGRFSSSLETGSVAALSYASRLNSLVMDIFVISIVTVIYPKMTKLSSENKIGELIESFNISIRSITIILFPIITIILIESVPIVKILFQRDAFGNKSTLMTSTALFYYIIGIIAAGLREVLCRMFYALKDTRTPMINSAITVLVNVVLAYYLKDVLRLGGIALASSIAAYVSSILLFIKLNSKLKNINYRKTIGVTIKVIFASIGMGIFLKVLYQIVGQALLKKAIIIEIIGFGGITLIALLIYMLILYLMKVEEINMVSAFLYKKIKRG | failed |
| MKALASRGTRNHLAGEAAENSVLRDYERRGYHLVRRRWRGRCGEIDLIARSGDEVVFVEVKQSRDFARAAESLGARQMKRLHAAAAEFLAEEPDGQLTPMRFDVALVDGTGRLEIVENAFGHG | failed |
| HSIPYKNINLPCYFISPANDGEKRDTVMIVSGFDGTLEEEFLMRGLAAVERGYNVIHFAGPGQMDVFRKYPDTYFEPDFEQVVKRIINYFEFRQEINMAKLTLMGISFGGYFATRAASHEPRIKVLIANSPILDLHAYMCSFVKMDPCEMPDSEDFSINDLPSIPNEVMPPQLKAQTEHLIRRFGQPTFKATFHYLREFTVGDSLNHIKIPCLALLGSGEGGEPGKQFAEFCKITNSAQYEFSDFEGAGSHCQVGNVSYSNAVVYDWLDSL | not failed |
| MKVVLAAIHPVPSPQAVPLANAFLKAYLGTDEELAARVAVTLCDFLRSTPADVCAAEILAHEPDAVGFSLYLWNTEESGRIAAELRRNRPGITIFAGGPQATADPLGTLTGGGYDFLILGEGEVPFLEVTARLADGRPFRGAPGTAWLDDGKLASRPQKPVALLDTIPSPFLSGIIEPGRYGGLLWQLSRGCDFACEYCFDYKGTKGVRRFSLERVDAELDFLVRHNVPQVFVLDSTFNVDAKRAKTILRMIRKRAPHIHFHFEVRSEFLDREMARLFAGITCSLQIGLQSADPAILKGIRRHFDPDDFRKRVALLNESGAVFGFDLIYGLPGDSLAGFRQSLDFALALYPNHLDIFPLAVLPGTPLAARAAQAGLDHLPAPPYALTATPTFPAPDMKRAARLAGACDIFYSRGKAVAWFNGVIAPLSLTPAEFLDAFGGWLARQGIEAREEALGDEAIWSLQRSFLAHIFADRRVRRLLPVALDLVDYHYHYAAALLAPPPELPTDRSLAGLNILDQVVCLAPSTRLARFSYEITDLLEAGNADLREICACFSPSPSWAVIYPRGNDIFTESLLESYFLLLEGLDGCCRAGDVVARLALSGEGAAEFLKFAAAEGIVTVRNCP | failed |
| MDRPLSFAAVSFLATLVTLLVLMQTALVAGGPLRALVLASVGAIGTYFAIRSGVLKS | failed |
| MIVIPMAGMSSRFFKAGYTQPKYMLEAHGQTLFEHSVNSFAAYFASTPFLFIVRNVYDTAVFVREKATQLGIKQFYIAELHTETRGQAETVTLGLEELAKQGVDYQGSITVFNIDTFRPNFVFPDISQHSDGYLEVFQGGGDNWSFAKPEHAGSTKVIQTAEKNPISDLCSTGLYHFNRKEDYLEAYREYVARPSQEWERGELYIAPLYNLLIQKGLNIHYHLIARHEVIFCGVPDEYTDFLRQPQPLEHHHHHH | not failed |
| MSRVSLPHDAKAGPTKPEVRAVLASKLALTGSDHFAEVGSCTGAVTITAARRAGRVTALERKGNRLDVTRKNLAANDVDADVELREAEAPEGLPDDADVLFLGGSRNYEAILDHAVETGVDRIVMNVSRLEVAGAATEAFRERDILEEVVQFQVSHGYELAGATSFNSENPVYMLVGSASEDVAADGGSPTETEATDGGQR | failed |
| MNLDRRGLILLVILTLAWGINWPIMKLGVAHFPAMAFRLLCMAGGLVALGLALTFRGDSLRVPRAAWGTVLKLAIPNMVIWHLFAICAVKMLSSGRAAILGYTMPIWAVVWGLVIFRDRIALSAWIGIGCALAGTVLLLSGEIAALTGSPAGTLLMLVAAAGWGFGTQLMKRTHTDVPIGAMTFWMLAITLPFLGAGTLLFESGWRMPTAIEWGAIAYNAVVVFAYCHLVWFALARSLPPVVSSLSIMFIPVVGVFSGMWFLGETPHWQDYVAIVLMFAALSSVMLAPLLRRRM | failed |
| MNTLLLTAGRVLLALYFLIPGIMKFVSWDMHIQLMEKHEMPFVPVLLGLAGVFQIGAAILLIANRFTWIVALLLAGLVLVINVSLHDFWNYSGMEGAHEMQNFIKNLGIFAGLLVLSGHSMPECCKTKKKS | failed |
| MQVISPSSPAPRFAGKERFSEVYGELNDDFGSKLKISSKEEENRDDDSWWNQNGTDKDDEGREEDFSFASVNADNSPITADEAFEDGQIRPVYPLFNRNIFFDDPEEKTLRSPLKKLFVESTTTEEEEEESDTVGPYCSWTNRTVEQASPETCRKSNSTGFSKLWRFRDLVLRSNSDGKDAFVFLSNGSSSTSSTSSTAARLSGVVKSSEKGKEKTKTDKKKDKMRTKSAHEKLYMRNRAMREEGKRRSYLPYKHVGFFTNVNGLTRNVHPY | failed |
| MVEFELLRSLGIMLLAALGVVLVARTARVPNIVAYIGAGLLLGPALGVLTVTHTIELIAEFGIILLLFLVGLELSLDKIKAVGTTAFVAGGVQMGGTALGGGLLAGLVGVPVVEAVVVAVAIMFSSTVVVVKMLEKQSDLDAPYGQIAVGVLLVQDLVVVMVLTFVAGLAGPGELAWADVARGLGQAFVGMVLLGGLIAAAARYVLPPAIQWISRMTEGLFIWSLFWCFLVVLGAEALHLSPELGAFLAGIALAQLPQCHELRQRVHPLMNFFIIVFFVSLGLQMELGAALARWPLALALAAFVMVVKPLLFFGVLPRLGHGEETSFRTGLSLAQISEFSLIFGALALSSGLIDEALLSVITLVGLVTFALSSFLLLYSDRLYAAVKPYRPLAWLGARQEAPAPPPDGLQGHVIVVGLNTLGRCLVDRLTAAGETVVAVDTDPEKLARRSVSTVHGNAVHETTREAADWEDAKLVVSSLSIEGTNNLLAYHAQRAGVPCSIHAFDRTSENSLRTFGVDHLIRSKHEGARRLLDELKSRAVLS | failed |
| MELVIILLALSLLMFVAYRGFSVILFAPIFALFAVFLTEPSYVLPFFSNIFMEKMVGFIKLYFPVFLLGAIFGKVVEMSGIADSIAKTIIELVGEKRTILAIVLMGAILTYSGVSVYVVVFAVYPFAAKLFRQANIPKRLIPGTIVLGAVTFTMDALPGSPQIQNVIPTTFFKTDIYAAPILGIVGAIFVLTVGLLYLESRRKKAKAEGEGYFGFNDGNTEMAASLQVEQKNMPLTNNIEITRAQQLITFIPLILVGVMNKVFTIMIPKWYPSGFDFSAIGMKAFGKVELSAVVGIWSVELALIIGILTTLLLYWKRVVTGFQAGLNTSIGGALLATMNTGAEFGFGGVIAALPGFAIMRDGISATFTNPLVNGAVTTNILAGITGSASGGMGIVLSAMGDKFIAAANQFDIPLEVMHRIVSMASGGMDTLPHNGAIITILTVTGLTHKQSYKDIFAITILKTVAVFLVIAFYTLTGLY | failed |
| MAENGESSGPPRPSRGPAAAQGSAAAPAEPKIIKVTVKTPKEKEEFAVPENSSVQQFKEAISKRFKSQTDQLVLIFAGKILKDQDTLIQHGIHDGLTVHLVIKSQNRPQGQSTQPSNAAGT | failed |
| MTGVLSGMAKTYLEFSDPNGAEHKFYEVTVDGPELTIRYGRIGTDGQRSTKTFPDAAVAQAEADKKIREKRKKGYEDAVMGARQKRTVVRREVTETRSTTRQIAPVLWRFKTRSAAYGIFVDQNTAWVGNDSGEVFALTLSGEVDRSFRLPDGVKCLVSDQFRTFAGCDDGNVYDLSGKLPFMAYEVESKAALLWLDLHGGTLGVSDSGGGVYAFDAESDQQWGHTDDRASMGWMVRVDARGVYYGHSRGVGMFDRESGFPNWHRPTRGSVLFGWQEGNDLYAGTSANLIQRFTKAGEHVQDYQCDGSVLSCAASPGGEFVFAGDSGSAVYCFNRAGERLWKLGTGCASALSMQFAADKLYIVTTNGTLAAIDVSPAAIEAARQGTTPEVRDVKLAAAMPAQAPATELTVTRNASGGVLLRGVQEGSKVRIRPDDSRFHKDWNVQFPRNLRAADGLYVVDDLEDAGGFYRVVGDLRRLENLEHHHHHH | not failed |
| MAHRRDRGLLGIWGDLVLTSVFIAAVSLALFWMAAFTLWWQMHAWRTPEVLASTRFSRPDGGEGLSFSLLLPARHEQAVLDHTIQRLLESSHTDFEIIVIVGHDDPETTEVARKAAARDERVRVVVDTHEKKNKPKAMNTALPHCRGDVVGVFDAEDQVHPELLAHVDHAFRSTGADVVQGGVQLINFNSSWYSLRNCLEYFFWFRSRLHLHAQKGFIPLGGNTVFVRTDVLKEADGWDPDCLAEDCDLGVRLSSVGKKVVVAYDSDMVTREETPGSLMSLLKQRTRWNQGFLQVYRKKDWKQLPGFGQRLLARYTLMTPFLQAISGVIIPLNAAVALFLDVPVGIAFITFLPAVTAFVTFVFEVVGLHDFGKQYGLRVRSVHYLKLIVGGPFYQVLLAGAAIRAVWREQRGRNDWELTSHVGAHLTEVIREDVPA | failed |
| MSIEERLEALEKEIQKMKDIEEIKKLKGQYFRCLDGKFWDELETTLSPNIVTSYSNGKLVFHGPKEVTDYFKKAMPREEISMHMGHTPEITIDSETTATGRWYLEDKLIFTEESKYAGSGVNGGAFYTDKYEKVDGKWYILETGYLRVYEEHFMRDPKIKITMNMHKTK | not failed |
| AIGMALVGTEGQWLQVNKSLSHFLGYSQDELRTMTFQQLTWPEDLNNDLEQLNMLVRGDINSYSMEKRYYTRNGDVVWALLAVSLVRHKDNKPLYFIAQIEDINDLKQSEQENQRLMERITQANDALFQEKERLHITLDSIG | failed |
